Results as given in patent publication US20120172295A1.
Non-standard residues stand in square brackets, D forms with d. No end group written: not given here. *: point of attachment. Palmitoyl = CCCCCCCCCCCCCCCC(=O)*; Myristoyl = CCCCCCCCCCCCCC(=O)*; Aib = CC(C)(N)C(=O)O

T1: GLP-1 receptor, P43220
T1 chain: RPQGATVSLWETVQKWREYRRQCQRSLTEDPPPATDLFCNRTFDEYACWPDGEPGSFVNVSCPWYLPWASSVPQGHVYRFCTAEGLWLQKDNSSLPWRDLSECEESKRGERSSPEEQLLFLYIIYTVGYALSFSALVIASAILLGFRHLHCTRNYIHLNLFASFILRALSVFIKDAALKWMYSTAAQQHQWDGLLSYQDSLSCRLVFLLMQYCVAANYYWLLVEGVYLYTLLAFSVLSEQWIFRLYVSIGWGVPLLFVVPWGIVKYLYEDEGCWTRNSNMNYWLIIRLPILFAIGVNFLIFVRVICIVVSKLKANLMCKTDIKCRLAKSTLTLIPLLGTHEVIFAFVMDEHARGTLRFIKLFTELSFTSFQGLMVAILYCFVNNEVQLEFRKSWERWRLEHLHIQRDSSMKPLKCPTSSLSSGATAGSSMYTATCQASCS

T2: GIP receptor, P48546
T2 chain: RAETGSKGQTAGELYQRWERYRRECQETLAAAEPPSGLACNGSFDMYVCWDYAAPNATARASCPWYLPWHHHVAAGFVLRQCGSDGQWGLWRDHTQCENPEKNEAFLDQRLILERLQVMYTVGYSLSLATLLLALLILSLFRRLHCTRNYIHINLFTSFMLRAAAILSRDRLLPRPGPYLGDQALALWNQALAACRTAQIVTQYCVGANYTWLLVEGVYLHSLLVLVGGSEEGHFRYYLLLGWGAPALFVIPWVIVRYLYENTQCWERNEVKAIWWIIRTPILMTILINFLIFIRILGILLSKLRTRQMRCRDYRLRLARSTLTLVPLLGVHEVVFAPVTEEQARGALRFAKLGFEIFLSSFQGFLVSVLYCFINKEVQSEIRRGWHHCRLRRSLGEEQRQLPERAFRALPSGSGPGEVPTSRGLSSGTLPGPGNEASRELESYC


Tests used:
Experiment in all cases: cell-based or functional assay
[1] = biological target: T1, GLP-1 receptor, P43220
[2] = biological target: T2, GIP receptor, P48546
[3] = biological target: glucagon receptor, P47871
glucagon receptor, P47871, sequence (P47871 26-477 limits assumed): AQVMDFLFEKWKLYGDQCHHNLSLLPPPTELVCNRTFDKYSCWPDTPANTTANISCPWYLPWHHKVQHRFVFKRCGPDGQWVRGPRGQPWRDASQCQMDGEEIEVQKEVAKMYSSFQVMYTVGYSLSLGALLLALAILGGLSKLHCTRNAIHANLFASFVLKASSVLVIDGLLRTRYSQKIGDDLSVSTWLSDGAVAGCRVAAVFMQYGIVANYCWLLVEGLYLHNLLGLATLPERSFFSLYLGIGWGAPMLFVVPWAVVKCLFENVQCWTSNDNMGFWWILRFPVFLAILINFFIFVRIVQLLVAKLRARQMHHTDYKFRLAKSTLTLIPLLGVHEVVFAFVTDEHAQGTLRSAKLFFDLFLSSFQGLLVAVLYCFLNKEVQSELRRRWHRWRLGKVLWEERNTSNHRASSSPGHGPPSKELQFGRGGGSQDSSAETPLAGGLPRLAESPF

| Binder | % relative activity [1] [%] | EC50 [1] [nM] | % relative activity [2] [%] | EC50 [2] [nM] | % relative activity [3] [%] | EC50 [3] [nM] |
| --- | --- | --- | --- | --- | --- | --- |
| H[Aib]QGTFTSDYSKYLDEQAAKEFIC(PEG 40 kDa)WLMNGGPSSGAPPPSK(Myristoyl)-NH2 [mt-349] | 286 | 0.0022 | 0.18 | 1.99 | 3.82 | 0.549 |
| H[Aib]QGTFTSDYSIYLD[Aib]QAAKEFVNWLMNGGPSSGAPPPSK(Palmitoyl)-NH2 (N-terminus assumed; SMILES CCCCCCCCCCCCCCCC(=O)NCCCC[C@H](NC(=O)[C@H](CO)NC(=O)[C@@H]1CCCN1C(=O)[C@@H]1CCCN1C(=O)[C@@H]1CCCN1C(=O)[C@H](C)NC(=O)CNC(=O)[C@H](CO)NC(=O)[C@H](CO)NC(=O)[C@@H]1CCCN1C(=O)CNC(=O)CNC(=O)[C@H](CC(N)=O)NC(=O)[C@H](CCSC)NC(=O)[C@H](CC(C)C)NC(=O)[C@H](Cc1c[nH]c2ccccc12)NC(=O)[C@H](CC(N)=O)NC(=O)[C@@H](NC(=O)[C@H](Cc1ccccc1)NC(=O)[C@H](CCC(=O)O)NC(=O)[C@H](CCCCN)NC(=O)[C@H](C)NC(=O)[C@H](C)NC(=O)[C@H](CCC(N)=O)NC(=O)C(C)(C)NC(=O)[C@H](CC(=O)O)NC(=O)[C@H](CC(C)C)NC(=O)[C@H](Cc1ccc(O)cc1)NC(=O)[C@@H](NC(=O)[C@H](CO)NC(=O)[C@H](Cc1ccc(O)cc1)NC(=O)[C@H](CC(=O)O)NC(=O)[C@H](CO)NC(=O)[C@@H](NC(=O)[C@H](Cc1ccccc1)NC(=O)[C@@H](NC(=O)CNC(=O)[C@H](CCC(N)=O)NC(=O)C(C)(C)NC(=O)[C@@H](N)Cc1c[nH]cn1)[C@@H](C)O)[C@@H](C)O)[C@@H](C)CC)C(C)C)C(N)=O) [mt-362] | 241 | 0.102 | 3.95 | 0.0782 | 83.2 | 0.0768 |
| H[Aib]QGTFTSDYSKYLDEQAAKEFICWLMNGGPSSGAPPPSK-NH2 (N-terminus assumed; SMILES CC[C@H](C)[C@H](NC(=O)[C@H](Cc1ccccc1)NC(=O)[C@H](CCC(=O)O)NC(=O)[C@H](CCCCN)NC(=O)[C@H](C)NC(=O)[C@H](C)NC(=O)[C@H](CCC(N)=O)NC(=O)[C@H](CCC(=O)O)NC(=O)[C@H](CC(=O)O)NC(=O)[C@H](CC(C)C)NC(=O)[C@H](Cc1ccc(O)cc1)NC(=O)[C@H](CCCCN)NC(=O)[C@H](CO)NC(=O)[C@H](Cc1ccc(O)cc1)NC(=O)[C@H](CC(=O)O)NC(=O)[C@H](CO)NC(=O)[C@@H](NC(=O)[C@H](Cc1ccccc1)NC(=O)[C@@H](NC(=O)CNC(=O)[C@H](CCC(N)=O)NC(=O)C(C)(C)NC(=O)[C@@H](N)Cc1c[nH]cn1)[C@@H](C)O)[C@@H](C)O)C(=O)N[C@@H](CS)C(=O)N[C@@H](Cc1c[nH]c2ccccc12)C(=O)N[C@@H](CC(C)C)C(=O)N[C@@H](CCSC)C(=O)N[C@@H](CC(N)=O)C(=O)NCC(=O)NCC(=O)N1CCC[C@H]1C(=O)N[C@@H](CO)C(=O)N[C@@H](CO)C(=O)NCC(=O)N[C@@H](C)C(=O)N1CCC[C@H]1C(=O)N1CCC[C@H]1C(=O)N1CCC[C@H]1C(=O)N[C@@H](CO)C(=O)N[C@@H](CCCCN)C(N)=O) [mt-346] | 367 | 0.0015 | 0.34 | 0.796 | 3.7 | 0.954 |
| H[Aib]QGTFTSDYSKYLDEQAAKEFIAWLMNGGPSSGAPPPSK-NH2 (N-terminus assumed; SMILES CC[C@H](C)[C@H](NC(=O)[C@H](Cc1ccccc1)NC(=O)[C@H](CCC(=O)O)NC(=O)[C@H](CCCCN)NC(=O)[C@H](C)NC(=O)[C@H](C)NC(=O)[C@H](CCC(N)=O)NC(=O)[C@H](CCC(=O)O)NC(=O)[C@H](CC(=O)O)NC(=O)[C@H](CC(C)C)NC(=O)[C@H](Cc1ccc(O)cc1)NC(=O)[C@H](CCCCN)NC(=O)[C@H](CO)NC(=O)[C@H](Cc1ccc(O)cc1)NC(=O)[C@H](CC(=O)O)NC(=O)[C@H](CO)NC(=O)[C@@H](NC(=O)[C@H](Cc1ccccc1)NC(=O)[C@@H](NC(=O)CNC(=O)[C@H](CCC(N)=O)NC(=O)C(C)(C)NC(=O)[C@@H](N)Cc1c[nH]cn1)[C@@H](C)O)[C@@H](C)O)C(=O)N[C@@H](C)C(=O)N[C@@H](Cc1c[nH]c2ccccc12)C(=O)N[C@@H](CC(C)C)C(=O)N[C@@H](CCSC)C(=O)N[C@@H](CC(N)=O)C(=O)NCC(=O)NCC(=O)N1CCC[C@H]1C(=O)N[C@@H](CO)C(=O)N[C@@H](CO)C(=O)NCC(=O)N[C@@H](C)C(=O)N1CCC[C@H]1C(=O)N1CCC[C@H]1C(=O)N1CCC[C@H]1C(=O)N[C@@H](CO)C(=O)N[C@@H](CCCCN)C(N)=O) [mt-363] | 672 | 0.0037 | 0.73 | 0.425 | 7.76 | 0.823 |
| H[Aib]QGTFTSDYSIYLD[Aib]QAAKEFVNWLMNGGPSSGAPPPSK-NH2 (N-terminus assumed; SMILES CC[C@H](C)[C@H](NC(=O)[C@H](CO)NC(=O)[C@H](Cc1ccc(O)cc1)NC(=O)[C@H](CC(=O)O)NC(=O)[C@H](CO)NC(=O)[C@@H](NC(=O)[C@H](Cc1ccccc1)NC(=O)[C@@H](NC(=O)CNC(=O)[C@H](CCC(N)=O)NC(=O)C(C)(C)NC(=O)[C@@H](N)Cc1c[nH]cn1)[C@@H](C)O)[C@@H](C)O)C(=O)N[C@@H](Cc1ccc(O)cc1)C(=O)N[C@@H](CC(C)C)C(=O)N[C@@H](CC(=O)O)C(=O)NC(C)(C)C(=O)N[C@@H](CCC(N)=O)C(=O)N[C@@H](C)C(=O)N[C@@H](C)C(=O)N[C@@H](CCCCN)C(=O)N[C@@H](CCC(=O)O)C(=O)N[C@@H](Cc1ccccc1)C(=O)N[C@H](C(=O)N[C@@H](CC(N)=O)C(=O)N[C@@H](Cc1c[nH]c2ccccc12)C(=O)N[C@@H](CC(C)C)C(=O)N[C@@H](CCSC)C(=O)N[C@@H](CC(N)=O)C(=O)NCC(=O)NCC(=O)N1CCC[C@H]1C(=O)N[C@@H](CO)C(=O)N[C@@H](CO)C(=O)NCC(=O)N[C@@H](C)C(=O)N1CCC[C@H]1C(=O)N1CCC[C@H]1C(=O)N1CCC[C@H]1C(=O)N[C@@H](CO)C(=O)N[C@@H](CCCCN)C(N)=O)C(C)C) [mt-361] | 226 | 0.0109 | 0.29 | 1.05 | 3.61 | 1.77 |
